Measurements reported in US20200390902A1, “Antibody-Drug Conjugates Targeted at Human Aspartyl-(Asparaginyl)-B-Hydroxylase (HAAH)” (Panacea Pharmaceuticals, Inc., priority 2017, published 2020).

T1: Human aspartyl (asparaginyl) β-hydroxylase (HAAH) (human, UniProt Q12797)
T1 sequence: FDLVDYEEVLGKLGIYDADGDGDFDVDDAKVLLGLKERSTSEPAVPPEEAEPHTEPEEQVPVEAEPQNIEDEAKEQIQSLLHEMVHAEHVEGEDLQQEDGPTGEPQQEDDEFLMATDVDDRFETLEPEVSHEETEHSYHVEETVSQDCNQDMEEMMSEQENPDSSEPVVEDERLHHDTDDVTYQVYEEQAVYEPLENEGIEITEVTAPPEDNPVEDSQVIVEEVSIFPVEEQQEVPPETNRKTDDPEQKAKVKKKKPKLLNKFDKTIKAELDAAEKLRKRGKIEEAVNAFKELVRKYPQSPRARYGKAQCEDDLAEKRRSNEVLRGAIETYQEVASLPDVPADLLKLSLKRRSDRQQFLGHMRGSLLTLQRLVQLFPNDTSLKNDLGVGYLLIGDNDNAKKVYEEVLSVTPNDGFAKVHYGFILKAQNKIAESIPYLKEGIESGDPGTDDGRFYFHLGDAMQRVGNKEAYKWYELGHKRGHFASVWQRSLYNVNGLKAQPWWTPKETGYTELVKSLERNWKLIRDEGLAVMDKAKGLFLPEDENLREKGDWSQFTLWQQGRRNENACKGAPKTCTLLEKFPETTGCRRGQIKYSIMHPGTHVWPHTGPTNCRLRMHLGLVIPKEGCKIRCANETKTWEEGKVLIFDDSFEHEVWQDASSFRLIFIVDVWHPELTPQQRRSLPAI

T2: HAAH catalytic domain (human, UniProt Q12797)
T2 sequence: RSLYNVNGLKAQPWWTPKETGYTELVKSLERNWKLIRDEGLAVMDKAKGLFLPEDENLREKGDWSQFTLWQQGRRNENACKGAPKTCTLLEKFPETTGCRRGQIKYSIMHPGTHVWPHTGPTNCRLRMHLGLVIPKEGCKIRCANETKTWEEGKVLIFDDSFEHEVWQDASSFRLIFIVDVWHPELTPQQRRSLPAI


What was measured:
[1] = molecular target: Human aspartyl (asparaginyl) β-hydroxylase (HAAH) (human) (UniProt Q12797)
[2] = molecular target: Human aspartyl (asparaginyl) β-hydroxylase (HAAH) (human) (UniProt Q12797); remark: listed apart in the source
[3] = molecular target: T1, Human aspartyl (asparaginyl) …; assay: immunoassay on fixed H460 cells; printed as 'binding affinities'
HAAH catalytic domain = molecular target: T2, HAAH catalytic domain; assay: ELISA on plates coated with HAAH catalytic domain
Procedure: The catalytic domain of HAAH (HAAH-cat) is exposed at the surface of HAAH-expressing cancer cells. The binding of SNS622-MC-DM1 at different drug-antibody ratio (DAR) and pH to HAAH-cat was measured using IgG1λ as control. The plates were coated with HAAH by treating with […] HAAH catalytic domain overnight. Following blocking with 1% Non-Fat Dry Milk in PBS for one hour, the plates were incubated for 45 minutes at 37° C. with 11.1 mg/ml IgG1λ; 9.6 mg/ml SNS622; 4.8 mg/ml SNS622-MC-DM1 at DAR 2.5, pH 7.0; 5.9 mg/ml SNS622-MC-DM1 at DAR 2.5, pH8.0; 6.1 mg/ml SNS622-DM1 at DAR 5.0, pH 7.0; 5.7 mg/ml SNS622-MC-DM1 at DAR 5.0, pH8.0; 4.1 mg/ml SNS622-DM1 at DAR 10.0, pH7.0; or 4.4 mg/ml SNS622-MC-DM1 at DAR 10.0, pH8.0. Following 5 PBS rinses the plates were incubated with 1:100 goat anti-human IgG (8)-HRP for 30 minutes at 37° C., Following five PBS rinses TMB substrate was added, and after a 15-minute incubation at room temperature, Stop solution was added to terminate the reactions. The plates were read at 450 nm using a 96-well plate reader (ELx808, BioTek). The binding results are shown below in Table VI

H460 lysate = assay: ELISA on plates coated with H460 lysate, percent of loading amount bound
[4] = molecular target: T1, Human aspartyl (asparaginyl) …; assay: cell-based or functional assay

Binder	% Binding (HAAH catalytic domain) [%]	other results
SNS622-MC-vc-PAB-MMAE (antibody, V domains shown, MC-vc-PAB-MMAE on cysteine thiols of reduced disulfide bonds, positions not given; reaction DAR 10:1, final DAR 6.31; MC-vc-PAB-MMAE on cysteine thiols of reduced disulfide bonds, positions not given) VH: QVQLQQSGPGLVKPSQTLSLTCAISGDSVSSNSAAWNWIRQSPSRGLEWLGRTYYRSKWYNDYAVSVKSRITINPDTSKNQFSLQLNSVTPEDTAVYYCARTGYSSSWVVNFDYWGQGTLVTVSS VL: QPVLTQSPSASGTPGQRVTISCSGSSSNIGSNYVYWYQQLPGTAPKLLIYKNNQRPSGVPDRFSGSKSGTAASLAISGLQSEDEADYYCAAWDDSLRGYVFGTGTKLTVLG	–	EC50, H460 cell viability, MTS assay, 24 h [1]: 60 nM; IC50, MOLM-14 cell viability, MTS assay, 24 h [2]: 50 nM; Kd [3]: ~0.2 nM
SNS622 (antibody, V domains shown) VH: QVQLQQSGPGLVKPSQTLSLTCAISGDSVSSNSAAWNWIRQSPSRGLEWLGRTYYRSKWYNDYAVSVKSRITINPDTSKNQFSLQLNSVTPEDTAVYYCARTGYSSSWVVNFDYWGQGTLVTVSS VL: QPVLTQSPSASGTPGQRVTISCSGSSSNIGSNYVYWYQQLPGTAPKLLIYKNNQRPSGVPDRFSGSKSGTAASLAISGLQSEDEADYYCAAWDDSLRGYVFGTGTKLTVLG	97.6	Percent binding (H460 lysate): 92%
SNS622-DM1B2 (antibody, V domains shown, MC-DM1 on cysteine thiols of reduced disulfide bonds, positions not given; reaction DAR 5:1, pH 8, final DAR 3.36; MC-DM1 on cysteine thiols of reduced disulfide bonds, positions not given) VH: QVQLQQSGPGLVKPSQTLSLTCAISGDSVSSNSAAWNWIRQSPSRGLEWLGRTYYRSKWYNDYAVSVKSRITINPDTSKNQFSLQLNSVTPEDTAVYYCARTGYSSSWVVNFDYWGQGTLVTVSS VL: QPVLTQSPSASGTPGQRVTISCSGSSSNIGSNYVYWYQQLPGTAPKLLIYKNNQRPSGVPDRFSGSKSGTAASLAISGLQSEDEADYYCAAWDDSLRGYVFGTGTKLTVLG	89.5	–
SNS622-MC-MMAE (antibody, V domains shown, MC-MMAE on cysteine thiols of reduced disulfide bonds, positions not given; reaction DAR 10:1 gives final DAR 5.72 (also made at 2.5:1 and 5:1); MC-MMAE on cysteine thiols of reduced disulfide bonds, positions not given) VH: QVQLQQSGPGLVKPSQTLSLTCAISGDSVSSNSAAWNWIRQSPSRGLEWLGRTYYRSKWYNDYAVSVKSRITINPDTSKNQFSLQLNSVTPEDTAVYYCARTGYSSSWVVNFDYWGQGTLVTVSS VL: QPVLTQSPSASGTPGQRVTISCSGSSSNIGSNYVYWYQQLPGTAPKLLIYKNNQRPSGVPDRFSGSKSGTAASLAISGLQSEDEADYYCAAWDDSLRGYVFGTGTKLTVLG	–	IC50 of MTS, H460 cells, 72 h [4]: 48 nM
SNS622-DM1A2 (antibody, V domains shown, MC-DM1 on cysteine thiols of reduced disulfide bonds, positions not given; reaction DAR 2.5:1, pH 8, final DAR 2.10; MC-DM1 on cysteine thiols of reduced disulfide bonds, positions not given) VH: QVQLQQSGPGLVKPSQTLSLTCAISGDSVSSNSAAWNWIRQSPSRGLEWLGRTYYRSKWYNDYAVSVKSRITINPDTSKNQFSLQLNSVTPEDTAVYYCARTGYSSSWVVNFDYWGQGTLVTVSS VL: QPVLTQSPSASGTPGQRVTISCSGSSSNIGSNYVYWYQQLPGTAPKLLIYKNNQRPSGVPDRFSGSKSGTAASLAISGLQSEDEADYYCAAWDDSLRGYVFGTGTKLTVLG	84.8	–
SNS622-DM1B1 (antibody, V domains shown, MC-DM1 on cysteine thiols of reduced disulfide bonds, positions not given; reaction DAR 5:1, pH 7, final DAR 3.22; MC-DM1 on cysteine thiols of reduced disulfide bonds, positions not given) VH: QVQLQQSGPGLVKPSQTLSLTCAISGDSVSSNSAAWNWIRQSPSRGLEWLGRTYYRSKWYNDYAVSVKSRITINPDTSKNQFSLQLNSVTPEDTAVYYCARTGYSSSWVVNFDYWGQGTLVTVSS VL: QPVLTQSPSASGTPGQRVTISCSGSSSNIGSNYVYWYQQLPGTAPKLLIYKNNQRPSGVPDRFSGSKSGTAASLAISGLQSEDEADYYCAAWDDSLRGYVFGTGTKLTVLG	81.2	–
SNS622-DM1C1 (antibody, V domains shown, MC-DM1 on cysteine thiols of reduced disulfide bonds, positions not given; reaction DAR 10:1, pH 7, final DAR 5.08; MC-DM1 on cysteine thiols of reduced disulfide bonds, positions not given) VH: QVQLQQSGPGLVKPSQTLSLTCAISGDSVSSNSAAWNWIRQSPSRGLEWLGRTYYRSKWYNDYAVSVKSRITINPDTSKNQFSLQLNSVTPEDTAVYYCARTGYSSSWVVNFDYWGQGTLVTVSS VL: QPVLTQSPSASGTPGQRVTISCSGSSSNIGSNYVYWYQQLPGTAPKLLIYKNNQRPSGVPDRFSGSKSGTAASLAISGLQSEDEADYYCAAWDDSLRGYVFGTGTKLTVLG	11.7	–
